The text below walks through data of paper PMC6078952.

The target of experiment [1] is recombinant human propeptide of lysyl oxidase (LOX-PP) (human) (UniProt P28300). The experiment in a line: SPR; Biacore T100 or T200, 25 °C, HBS pH 7.4 with 0.05% P20; LOX-PP covalently immobilised on a CM5 chip via amino groups, plasminogen as analyte; single-cycle kinetics, 2-state model, n = 2. (In general: In SPR one partner is held on a chip, and binding of the other changes the refractive index at the surface.)
Chain of recombinant human propeptide of lysyl oxidase (LOX-PP) (human) (P28300 22-168 P24L): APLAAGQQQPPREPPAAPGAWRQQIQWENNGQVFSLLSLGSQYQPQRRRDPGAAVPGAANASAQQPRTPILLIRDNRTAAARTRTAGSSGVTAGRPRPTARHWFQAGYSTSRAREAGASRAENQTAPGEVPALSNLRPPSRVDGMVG

In another experiment the target is Tropoelastin (UniProt P15502). The experiment in a line: SPR; Biacore T100 or T200, 25 °C, HBS pH 7.4 with 0.05% P20; tropoelastin covalently immobilised on a CM5 chip via amino groups, LOX-PP as analyte; single-cycle kinetics, 2-state model.
Chain of Tropoelastin (P15502 27-786): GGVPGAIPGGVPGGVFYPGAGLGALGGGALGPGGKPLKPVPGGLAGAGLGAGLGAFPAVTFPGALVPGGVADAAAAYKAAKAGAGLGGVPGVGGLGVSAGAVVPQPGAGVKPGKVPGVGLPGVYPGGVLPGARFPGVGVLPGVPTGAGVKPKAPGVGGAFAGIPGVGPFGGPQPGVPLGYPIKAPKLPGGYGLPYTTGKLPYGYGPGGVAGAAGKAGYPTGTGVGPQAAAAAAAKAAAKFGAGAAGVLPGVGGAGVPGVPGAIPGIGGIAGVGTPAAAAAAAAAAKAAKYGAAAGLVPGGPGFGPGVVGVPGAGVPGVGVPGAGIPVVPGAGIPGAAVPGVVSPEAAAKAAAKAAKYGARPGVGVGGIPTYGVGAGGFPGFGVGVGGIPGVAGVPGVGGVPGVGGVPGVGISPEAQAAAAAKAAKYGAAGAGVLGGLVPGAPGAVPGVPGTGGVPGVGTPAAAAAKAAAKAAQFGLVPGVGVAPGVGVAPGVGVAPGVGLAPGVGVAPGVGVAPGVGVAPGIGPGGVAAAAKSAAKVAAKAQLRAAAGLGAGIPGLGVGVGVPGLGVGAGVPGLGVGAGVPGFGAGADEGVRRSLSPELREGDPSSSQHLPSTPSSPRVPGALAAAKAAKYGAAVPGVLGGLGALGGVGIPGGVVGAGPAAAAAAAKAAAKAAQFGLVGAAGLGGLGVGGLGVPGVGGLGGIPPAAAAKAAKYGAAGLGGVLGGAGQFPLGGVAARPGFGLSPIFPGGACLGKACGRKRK

With Plasminogen (natural protein), in experiment [1], the equilibrium dissociation constant (Kd) was found to be 15.8 nM, the ka of the first step (2-state model) came to 41700 M⁻¹ s⁻¹, the ka of the second step (2-state model) was determined as 0.00214 s⁻¹ and the kd of the first step (2-state model) was 0.00515 s⁻¹. In experiment [1], the kd of the second step (2-state model) worked out at 0.000306 s⁻¹.
In the case of “recombinant human propeptide of lysyl oxidase (LOX-PP) (from UniProt P28300 22-168) (domain or fragment)”, in the experiment with Tropoelastin, the dissociation constant Kd stood at 1.39 nM, the ka of the first step (2-state model) worked out at 331 M⁻¹ s⁻¹, the ka of the second step (2-state model) was 0.003 s⁻¹ and the kd of the first step (2-state model) came out at 0.0043 s⁻¹. In the experiment with Tropoelastin, this substance registered a kd of the second step (2-state model) of 3.1e-07 s⁻¹.

For orientation: Kd means the free concentration of one partner at which half of the binding sites on the other are occupied at equilibrium, for simple one-to-one binding.
